Experiment: yeast display, Sf9 membrane polyspecificity reagent, FACS + sequencing; frameworks hold sequencing errors
How it was run: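 Genes from sorted yeast were amplified by colony PCR, read by MiSeq 2 × 250 sequencing and filtered on CDR length. These cells carried a synthetic nanobody library in Saccharomyces cerevisiae BJ5465 and were sorted by FACS into low and high (top ~1%) gates on anti-HA and streptavidin fluorescence. Polyreactivity is labelled according to the gate of origin.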

Sequence: QVQLVETGRGLVQAGGSLRLSCAASGSTFWPNAMGWYRQAPGKDRELVAAITSGGGTKYADSVKGRFTISRDNAKNTVYLQMNSLKPEDTAVYYCAKRKGDRGAWNHAYGWEDVDYWGQGTQVTVSS
- polyreactivity (PSR sort gate): low polyreactivity

Sequence: QVQLVETGRGLVQEGGSLRLICAASGRTFYIYAMGWYRQAPGKERDLVAAISWGSGSPYYADSVKGRFTISRDNAKNTVYLQINSLKPEDTAVYYFAAEYAFPSEWTYDYWGQVTQVTVSS
- polyreactivity (PSR sort gate): low polyreactivity

Sequence: QVQLVETPGGLVQAGGSLRLSCAASGRIFAYNAMGWYRQEPGNERELVAAIDSGGDTNYADSVKGRFTISRDNAKNTVYLKMNSLKPEVTAVYYCWSRAAPPGWFYGTNDNYWGQGTQVTVSS
- polyreactivity (PSR sort gate): low polyreactivity

Sequence: QVQLVETVRGLVQAGGSLRITCAASGRIYAYYSMGWYRQPPGKERELVAAITRSGGSTYYADSVKGRFTNSRDIAKYTVYIQMISLKPEDNAVYYCAPSLNVPYATMNYWGQGTQVTVSA
- polyreactivity (PSR sort gate): high polyreactivity

Sequence: QVQLVEYGGGLVQAGGSLRLSCAASGRIFNYYAMGWYRQAPGKEREFVAAITRSGGRTYYADSVKGRFTISRDNAKNTVYLQMNILKPEDTAVYYCAAPYGTYAYDYSGQGTQVTVSS
- polyreactivity (PSR sort gate): high polyreactivity

Sequence: QVQLVEYGGGLVQAGGSLRLSCADSGRIFDVYAMGWYRQAPGKERELVARISDGGGSTYYADSVKGRFTISRDNAKNTVYLKMNSLKPEDTAVYYCAAGGDLRLDRRFAFVSRGDYWGQGTQVTVSS
- polyreactivity (PSR sort gate): low polyreactivity

Sequence: QVQLVKSGGGLVQAGGSLRLSCAASGSTFYNAMGWYRQAPGKERELVAAISIGGSTYYADSVKGRFTISRDNAKNTVYLQMNSLKPEDTAVYYCAAVWYTSRQKYDYWGHGTQVTVSS
- polyreactivity (PSR sort gate): low polyreactivity

Sequence: QVQLVKSGGGLVQAGGSLRLSCAASGSTFYNAMGWYRQAPGKERELVAAISIGGSTYYADSVKGRFTISRDNAKNTVYLQMNSLKPEDTAVYYCAAVWYTSRQKYDYWGQGTQVTVSS
- polyreactivity (PSR sort gate): low polyreactivity

Sequence: QVQLVLLGGGLVQAGGTLRVSCAPSGSIIYWKDRGWYRQAPGKERELDASITASGSSTYYADSVKGRFTISRDNGKNTVYLQMNSLLPEDTAVYYCNTSVFTYYDSAYDYWGQGTQVTVSS
- polyreactivity (PSR sort gate): low polyreactivity

Sequence: QVQLVQSGAGLVQAGGSLRLSCAPSGFIFRRYDMAWYRQAPGKERELVAAITSSGGTTYYADSVKGRFTNSRDNAKNTVYLQMNSLKPEDTAVYYCNAVRGVYARRSDYWGQGTQVTVSS
- polyreactivity (PSR sort gate): high polyreactivity

Sequence: QVQLVQSGGGIVQAGGSLRLSCAAYGITFGRNNMGWDRQAPGKERELVAALDSGGNTYADSVKGRFTISRDNAKQTVYVQMNSLKPEDTAVYDCAVDGGEFSSYGYWGQGTQVTVSS
- polyreactivity (PSR sort gate): low polyreactivity

Sequence: QVQLVQSGGGLFQAGGSLRLSCAASGRTFWSNAMGWYRQAPGKERELVADITFSGGRTYYADSVKGRFTISRDNAKTSVYLQMNRLKPEDTAVYYCSSSATPSGVGMDYWGQGTQVTVSS
- polyreactivity (PSR sort gate): low polyreactivity

Sequence: QVQLVQSGGGLVHAGGSLRLSCAASGRISFYYAMGWYRQAPGKERELVAAISRGGSTYYPDSVKGRFTISRDNAKNTVFLQMNSLKPEDTAVYYCAATYSGVDTPSGYDYWGQGTQVTVSS
- polyreactivity (PSR sort gate): low polyreactivity

Sequence: QVQLVQSGGGLVQAGGSLRLICAASGGTFSYNTMGWYRQAPGKVRELVAVITFSGGSTYYADCVKGRFTISRDNAKNTVYLQMNSLKQEDTAVYYCAADWLSKYDYWGQGTQVTVSS
- polyreactivity (PSR sort gate): low polyreactivity

Sequence: QVQLVQSGGGLVQAGGSLRLSCAASGFTLRRNAMGWYRQAPGKERELVAAISSSGSTYYADSVKGRFTISRDNAKNTVYLQMNSLKPEDTAVYYCAASATYKVRGGYWGQGTQVTVSS
- polyreactivity (PSR sort gate): high polyreactivity

Sequence: QVQLVQSGGGLVQAGGSLRLSCAASGRTFGRYAMGWYRQAPGKERELVAAINRGGSTKYADSVQGRFTISRDNAKNTVYLQMNSLKPEDTAVYYCAKDRHPALLYDYWGQGTEVTVSS
- polyreactivity (PSR sort gate): low polyreactivity

Sequence: QVQLVQSGGGLVQAGGSLRLSSAASRSPLGYYALGWYRQAPGKERELVAAISGRGTSPYYADSVKGRFTISRDNAKNTVYVQMNSLKPEDTAVSYCAAQLFRELYWGQGTQVTVSS
- polyreactivity (PSR sort gate): high polyreactivity

Sequence: QVQLVQSGGGLVQAGGSLSLSCAASGSIFNYNAMGWYRQAPGKERELVAAITSADGRTFYADSVKGRFTISRDNAKNTVYLQMNSLKPEDTAVYYCAAERTSRYSTYEYWGQGTQVTVSS
- polyreactivity (PSR sort gate): low polyreactivity

Sequence: QVQLVQSGGGLVQAGGSLSLSCAASGSIFPGYTRGWYRQAPGKERELVAAISRRGGSTYYADSVKGRFTISRDNAKNPGYLQMNSLKPEDTAVYYCAKVPDYRFEYWGQGTQVTVSS
- polyreactivity (PSR sort gate): high polyreactivity

Sequence: QVQLVQSVGGLVQAGGSLRLSCAATGRIFFSYAMGWYRQAPGKERELVAAISWDGGSTYYADSVKGRFTISRDNAKNTDYLQMTSLKPEDTAVSYCNADTHFPPSSSSYSPSLLDYWGQGTQVTVSS
- polyreactivity (PSR sort gate): low polyreactivity

Sequence: QVQLVSSGGRLVQSGGSLRLSCAASGRTFYPYAMGWYRQAPGKERELVAGIRNSGTSTYYADSVKGRFTISRDNAKNTVYLQMNSLKPEVTAVYYCNARGYRNRGYGYDSWGQGTQVTVSS
- polyreactivity (PSR sort gate): high polyreactivity

Sequence: QVQLVVSGGGLVQAGGSLRLICAASGFSFFFYALGWYSQAPGKDRELHATINWSGASTYYADSVMGRFTISRDNATNTVYLQMNSLKPEDTAVYYCAKDGHYPLVYLAFDYWGQGTQVTGSS
- polyreactivity (PSR sort gate): low polyreactivity

Sequence: QVQLVVSGGGLVQAGGSLRLSCAASGFTFGYYAMGWYRQAPGKERELVAAITASGARTYYADSVKGRFTISRDNAKNTVYLQMNSLKPEDTAVYYCAAYTNAYRERWPDYGYWGQGTQVTVSS
- polyreactivity (PSR sort gate): high polyreactivity

Sequence: QVQLVVSGGGLVQAGGSLRLSCAASGRTFYRYAMGWYRQAPGKEWELVAAISASGGITYYADSVKGRFTISRDNAKNTVYLQMNSLKPEDTAVYYCKAVWRKTEYDYWGQGTQVTVSS
- polyreactivity (PSR sort gate): high polyreactivity

Sequence: QVQLVVSGGGLVQAGGSLRLSCAASGSIFPYYTMGWYRQAPGKEWELVAAISGSGTSTYYADSVKGRFTISRDNAKNTVYLQMNSLKPEDTAVYYCAKRFRYGYVNYYYWGQGTQVTVSS
- polyreactivity (PSR sort gate): low polyreactivity

Sequence: QVQLVVSGGGLVQAGGSLRLSCATTGRIFHRSAMGWYRQAPGKERGLVAGISSSGGSTYADSVKGRFTISRDNAKNTVYLQMNSLKPEDTAVYYCAAKWRHSGGGMYYWGQGTQVTVSS
- polyreactivity (PSR sort gate): high polyreactivity

Sequence: QVQLVVSGGGLVQQGGSLRLSCAASGTFRYYTMGWYRQAPGKERELVAAISRSGGRSYYADSVTGRCTISRDNAKNTVDLPMNSLKPEDTAVYYCAARYKLYYPDYYYWGQGTQVTVSS
- polyreactivity (PSR sort gate): high polyreactivity

Sequence: QVQLVVSGGVLVQAGGSLRLSCAASGRTFASYTMGWYIQAAGKERELVAAISRGGNTYYADSVKGRFTISRDIAKNTVYLQMNSLKPDDTAVYYCAATAVKYDRRFYYWGQGTQVTVSS
- polyreactivity (PSR sort gate): high polyreactivity

Sequence: QVQLVVSGPGLFQAGGSLRISCAPSGFIFYNYAMGWYRQAPGKERELVAAISRSGGSTYYADSVKGRFTISRDNAKNTVYLQMNSLKPEDTAVYYCKVGYGRGSTIGGYDYWGQGTQVTVSS
- polyreactivity (PSR sort gate): high polyreactivity

Sequence: QVQLVYSGGGLVQAGGSLRLSCAASGISFSQYAMGWYRQAPGKERELVASISSGGRTNYADSVKGRFTISRDNAKNTVYLQLNSLTPEDTAVYYCAAEQWGWYWYDYWGQGTQVTVSS
- polyreactivity (PSR sort gate): high polyreactivity

Sequence: QVQMQESGGGLVLAGGSLRLSCASSGSISAQAYMGWDRQAPGKEREHVAGINYGDNTNYADSVKGRFTISRDNEHRVSADEQPETGRYRGVLLRGFLELFYYYIYWGQGTQVTVSS
- polyreactivity (PSR sort gate): high polyreactivity

Sequence: QVQMQESGGGLVQAGGSLRLICAASGTILYSLGMGWYRQATGKRREFVASITWGTTTNYAERVKGRFTISSDNAKNTVYPKIISLKPEVTAVYYCASPPFGDSSFHYWGQGTQVTVSS
- polyreactivity (PSR sort gate): low polyreactivity

Sequence: QVQMQESRGGLVQAGGSLRLSCAASGTITTLPAMGWNRQAPGKEREFVAGIDTGAITNYADSVKGRFTISRDNAKNTVYLQKNSLKPEVTAVYYCAVFPAAYDYYERYYTYWGQGTQVTVMS
- polyreactivity (PSR sort gate): low polyreactivity

Sequence: QVQPQESGGGLVQAGGSLRLSCAASGTIFAFQTMGWYRQAPGKERELVASITYGSSTNYADSVKGRFTISRDNAKNTVYLQMNSLKPEDTAVYYCAKSAQRYSYRYYYWGQGTQVTVSS
- polyreactivity (PSR sort gate): high polyreactivity

Sequence: QVQPQESGGGPVQACGSLRLSCAASGNILDADILGWYRLVPAKERELVASITDGGSTNYAESVKGRFTISRDNAKNTVYLQMNSLKPEDTAVYYCARRHRVFPSRIGHDYWGQGSQVTVSS
- polyreactivity (PSR sort gate): low polyreactivity

Sequence: QVQPVESRGGLVQAGGSLRLSCAASGRIFARNAQGWYRTAPGKERELVAAITYSSGRTYYADSVKGRFTISRDNAKNTVYLQMNSLKPEHTAVYYCADGKGYIGVSVSGGYGYWGPGTQVTVSS
- polyreactivity (PSR sort gate): high polyreactivity

Sequence: QVQQQASGGGLVQAGGSLRLSCATSGSIFYADTMGWYRQAPGKEREFVITYYADSVKGLSRDNAKNTVYLQMNSLKPEDSAVYYCATDGVNPFYAYDYWGQGTQVTVSS
- polyreactivity (PSR sort gate): low polyreactivity

Sequence: QVQQQESGGGLVQACGSLPLSCAASVSIFTQATMGWYRQPPGKERELVAAINFGSSTYYADSVKGRFTISRDNAKSTVYLQMNSLKPEDTSVYYCAVRALWYDLHDYWGQGTQVTVSS
- polyreactivity (PSR sort gate): high polyreactivity

Sequence: QVQQQESGGGLVQAGGSLRLSCAASGTIFQLTVMGRYRQAPGKERELVASIDYGGNTNYADSVKGRFTISRDNAKNTVYLQMHSLKPEDTAVYYCAASSDSWTTHPYWGQGTQVTVSS
- polyreactivity (PSR sort gate): low polyreactivity

Sequence: QVQQQESGGGLVQEGGSLRLSCAASGYIFDYYYMGWYRQAPGKEREFVATISEGSTTNYADSVKGRFTTSRDNSKNTVYLQMNSLKPEDTAVYYCATDTVYGNDYWGQGTHVTVSS
- polyreactivity (PSR sort gate): low polyreactivity

Sequence: QVQQRESGGGLVQAGGSLSLSCAASGTIFYSRYMGWYRQAPGKEREFVASISSGGNTNYADSVKGRCTISRDNAKNTVYLQMNSLKPEVTAVYYCAVNTGLITTFPFWGQATQVTVSS
- polyreactivity (PSR sort gate): high polyreactivity

Sequence: QVQQVESGGGLVQAGGSLRLSCAASGFIFFGYAMGWYRQARGKERELVAAITSGGSTYYADSVKGRFTISRDNAKNTVYLQMNSLKPEDTAVYYCAADNSGWWGTGYNYWGQGTQVTVSS
- polyreactivity (PSR sort gate): high polyreactivity

Sequence: QVQQVESGGGLVQAGVSLRLSCPASGLTFYTNPRGWYRQAPGKERELVAAIRRRGGRTYYADSVKGRFTISRDNATNSVYLQMNSLKPEDTAVSYCAADYSTLYNYDYWGQGTQVTVSS
- polyreactivity (PSR sort gate): low polyreactivity
